Legend:
[1] = target: CXE15 C14S fused to split YFP (Arabidopsis thaliana) (UniProt Q9FG13); test: split reporter
[2] = target: CXE15 C14S mutant (Arabidopsis thaliana) (UniProt Q9FG13); test: MST
[3] = target: full-length Arabidopsis thaliana CXE15 (Arabidopsis thaliana) (UniProt Q9FG13); test: MST

Substance: CXE15 C14S fused to split YFP (from UniProt Q9FG13 1-329) (enzyme)
- fold reduction of BiFC fluorescence against wild-type CXE15 [1]: > 2 fold

Substance: CXE15 C14S mutant (from UniProt Q9FG13 1-329) (enzyme)
- Kd [2]: 4.5 µM

Substance: full-length Arabidopsis thaliana CXE15 (from UniProt Q9FG13 1-329) (enzyme)
- Kd [3]: 1.62 µM

From publication PMC12638876
